Experiment: yeast display, Sf9 membrane polyspecificity reagent, FACS + sequencing; frameworks hold sequencing errors
Method in brief: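 Nanobodies came from a synthetic yeast display library in Saccharomyces cerevisiae BJ5465, induced with galactose for 36–48 hours and stained for 1 hour at 4 °C with 10% biotinylated, detergent-solubilized Sf9 membrane reagent. Cells were enriched on streptavidin microbeads and then FACS-sorted, with low and high (top ~1%) gates set on anti-HA fluorescence for expression and streptavidin fluorescence for reagent binding. Each polyreactivity label reflects the gate a clone came from. Genes were amplified by colony PCR, sequenced by MiSeq 2 × 250 and filtered by CDR length.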

Row | Sequence | polyreactivity (PSR sort gate)
1 | QVQLVESGGGLVQAGGSLRLSCAASGSTFYYNVMGWYRQAPGKEREFVAAITQRGGSTYYADSVKGRFTISRDNAKNTVYLQMNSLKPEDTAVYYCAARTRYDFDWGQGTQVTVSS | high polyreactivity
2 | QVQLVESGGGLVQAGGSLRLSCAASGSTFYYYAMGWYRPAPGKERELVAAINYNGGSTHYADSVKGRFTISRDNAKNTVYLQMNSLKPEDTAVYYCAAKYRLSYTHGYWGQGTQVTVSS | low polyreactivity
3 | QVQLVESGGGLVQAGGSLRLSCAASGSTFYYYAMGWYRQAPGKEREFVAAISGGDGTTSYADSVKGRFTISRDNAKNTVYLQMNSLKPEDTAVYYCATPYTSYLYGYDYWGQGTQVTVSS | low polyreactivity
4 | QVQLVESGGGLVQAGGSLRLSCAASGSTFYYYAMGWYRQAPGKEREFVASISSRGTSTYYADSVKGRFTISRDNAKNTVYLQMNRLKPEDTAVYYCAARGWGPTRAYDYWGQGTQVTVSS | high polyreactivity
5 | QVQLVESGGGLVQAGGSLRLSCAASGSTFYYYAMGWYRQAPGKERELVAAINYNGGSTHYADSVKGRFTISRDNAKNTVYFQMNSLKPEDTAVYYCAAKYRLSYTHGYWGQGTQVTVSS | low polyreactivity
6 | QVQLVESGGGLVQAGGSLRLSCAASGSTFYYYAMGWYRQAPGKERELVAAIRSSGGSTYYADSVKGRFTISRDNAKNTVYLQMNSLKPEDTAVYYCIHYLSTYHGTFTYGYWGQGTQVTVSS | low polyreactivity
7 | QVQLVESGGGLVQAGGSLRLSCAASGSTFYYYAMGWYRQAPGKERELVATIDSGTSTYYADSVKGRFTISRDNAKNTVYLQMISLKPEDTAVYYCAAKTWSWSYGYNYWGQGTQVTVSS | low polyreactivity
8 | QVQLVESGGGLVQAGGSLRLSCAASGSTFYYYAMGWYRQAPGKERELVATISSGSSTNYADSVKGRFTISRDNAKNTVYLQMNCLKPEDTAVYYCAADRWYITLSIDATISYDYWGQGTQVTVSS | low polyreactivity
9 | QVQLVESGGGLVQAGGSLRLSCAASGSTFYYYAMGWYRQAPGKERELVAVIRDSDGSTDYADSVKGRFTISRDKAKNTVYLQMNSLKPEDTAVYYCAATNVRGVYYWGQGTQVTVSS | high polyreactivity
10 | QVQLVESGGGLVQAGGSLRLSCAASGSTFYYYAMGWYRQAPGKVRELVATISWSGDSTYADSVKGRFTISRDNAKNTVYLQMNSLKPEDTAVYYCATSGDWWGFRYVYWGQGTQVTVSS | low polyreactivity
11 | QVQLVESGGGLVQAGGSLRLSCAASGSTFYYYGMGWYRQAPGKERELVATISGSGGSTYYADSVKGRFTITRDNAKNTVYLQMNSLTQEDTSVYYCNKDVLPSQTYSNVYWGQGTQVSVSS | low polyreactivity
12 | QVQLVESGGGLVQAGGSLRLSCAASGSTFYYYVMGWYRQAPGKERELVAAISRGGGSTYYADSVKGRFTISRDNAKNTVYLQMNSLKPEDTAVYYCAAASYYVEGDYWGQGTQVTVSS | low polyreactivity
13 | QVQLVESGGGLVQAGGSLRLSCAASGSTFYYYVMGWYRQAPGKERELVAVISKSGGSTRYADSVKGRFTISRDNAKNTVYLQMNSLKPEDTAVYYCAADGLRLVPGYKYDYWGQGTQVTVSS | high polyreactivity
14 | QVQLVESGGGLVQAGGSLRLSCAASGSTGYYAMGWYRQAPGKERELVAAISYRGASTYYADSVKGRFTISRDNAKNTVYLQMNSLKPEDTAVYYCAALRQERVKYGYWGQGTQVTVSS | high polyreactivity
15 | QVQLVESGGGLVQAGGSLRLSCAASGSTIATYAMGWYRQAPGKERELVATISSSGSGTYYADSVKGRFTISRDNAKNTVYLQMNSLKPEDTAVYYCAVDSRGKLGISGEYGYWGQGSQVTVSS | low polyreactivity
16 | QVQLVESGGGLVQAGGSLRLSCAASGSTIDINTKGWYRQAPGKEREFVAAITDSDDSTYYADSVKGRFTISRDNAKNTVYLQMNSLKPEDTAVYYCATDPDYVLYRTAYYEYDYWGQGTQVTVSS | low polyreactivity
17 | QVQLVESGGGLVQAGGSLRLSCAASGSTIDVYTMGWYRQAPGKERELVAAISRGSSTYYADSVKGRFTISRDNAKNTVYLQMNSLKPEDTAVYYCNAVTSRKYRRYGYGYWGQGTQVTVSS | high polyreactivity
18 | QVQLVESGGGLVQAGGSLRLSCAASGSTIDVYTMGWYRQAPGKERELVAAISRGSSTYYADSVKGRFTISRDNAKYTVYVQMNSLKPEDTAVYYCNAVTSRKYRRYGYGYWGQGTQVTVSS | high polyreactivity
19 | QVQLVESGGGLVQAGGSLRLSCAASGSTIDYYAMGWYRQAPGKERELVAGIDSAGSTNYADSVKGRFTISRDNAKNTFYLQMNSLKTGRYRGLYCNVGKTITTYAFTTFDYWGQGTHVTVSS | low polyreactivity
20 | QVQLVESGGGLVQAGGSLRLSCAASGSTIEPYAMGWYRQAPGKERELLAAITLSAGSTYYADSVKGRFTISRDYAKNTVYLQMNSLNPEDTAVYYCNADYGYNNQLLWGYYGWSSDHWGQGTQVTVSS | low polyreactivity
21 | QVQLVESGGGLVQAGGSLRLSCAASGSTIFAYAMGWYRQAPGKERELVAAIRRGGTSTYYADSVKGRFTISRDNAKNTVYLQMNSLKPEDTAVYYCNKAYITKRGVSGSNDYWGQGTQVTVSS | low polyreactivity
22 | QVQLVESGGGLVQAGGSLRLSCAASGSTIFGNVMGWYRQAPGKERELVAAISKTGGNTYYADSVKGRFTISRDNAKNTVYLQMNSLKPEDTAVYYCNALRGDWRDMGYWGQGTQVTVSS | high polyreactivity
23 | QVQLVESGGGLVQAGGSLRLSCAASGSTIGPYAMGWSRQAPGKERELVAAITISGDSTNYADSVKGRFTISRDNAKNTVYLQMLSLKPEDTAVYYCAAAYYWLQSWYDYWGQGTLVTVSS | low polyreactivity
24 | QVQLVESGGGLVQAGGSLRLSCAASGSTIGRNAMGWDRQAPGNERELVASITDSSGSPNYADSVKGRFTISRDNAKNSVYLQMHSLKPEDTAVYYCATGYYYYTRYRYHTKYYSWGQGTQVTVSS | high polyreactivity
25 | QVQLVESGGGLVQAGGSLRLSCAASGSTIGSYAMGWYRQAPGKERELVAAITWNGGGTYYADSVKGRFTISRDNAKNTVYLQMNSLKPEDTAVYYCAADGWFGRVAPGSDYWGQGTQVTVSS | low polyreactivity
26 | QVQLVESGGGLVQAGGSLRLSCAASGSTIHDYAMGWYRQAPGKEREFVAAISNSGGSTYYADSLKGRFTISRDNAKNTVYLQMNSLKPEDTAVYYCAADGRWYWDYEYWGQGTQVTVSS | low polyreactivity
27 | QVQLVESGGGLVQAGGSLRLSCAASGSTIHINAMGWYRQAPGKERELVADINWSGGSTYYADSVKGRFTISRDNAKNTVYLQMNSLKPADSAVYYCAADVGVFTYSPYDAGEHDYWGQGSQVTVSS | low polyreactivity
28 | QVQLVESGGGLVQAGGSLRLSCAASGSTIIRNAMGWYRQAPGKERELVAAISTSAGRTHYADSVKGRFTISRDHAKNTVYLNMNSLKPEDTAVSYCATRGKGHYYYWGQGTKVTVSS | high polyreactivity
29 | QVQLVESGGGLVQAGGSLRLSCAASGSTIKTYATMGWYRQAPGKERELVSAITSGSSTNYADSVKGRFTISRDNAKNNVYLQMNSLKPEATAVYYCAADDYYNWYLGEPGDYWGQGTQVTVSS | low polyreactivity
30 | QVQLVESGGGLVQAGGSLRLSCAASGSTILYYGMGWYRQAPGKERELVATITWRGGRTYYADSVKGRFTISRDNAKNTVYLQMNSLKTEDTAVYYCARVRLTTYGYYSWGQGTQVTVSS | high polyreactivity

Source: the nanobody polyreactivity screen of Harvey et al. (2022)
